Biological target: Ferritin-H (ferritin heavy chain) (Homo sapiens) (UniProt P02794)
Experiment: cell_activity
Conditions: CV-1 cells, EKLF-stimulated beta-CAT reporter

Sequence of Ferritin-H (ferritin heavy chain) (Homo sapiens) (P02794 2-183): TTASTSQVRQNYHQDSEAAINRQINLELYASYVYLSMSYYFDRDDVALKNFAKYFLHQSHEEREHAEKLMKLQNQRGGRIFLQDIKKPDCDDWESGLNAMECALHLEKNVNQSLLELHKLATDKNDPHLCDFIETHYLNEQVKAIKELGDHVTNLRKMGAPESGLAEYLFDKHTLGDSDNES

In the case of beta-globin 5' region -610/+20 (630 bp), the activity was 62 % repression.

Reference: patent US20040186048
